Source: paper PMC6277972

Target: P74-26 gp87 (Head Decoration Protein gp87 from Thermus phage P74-26) (Thermus bacteriophage P74-26)
Assay: SEC-MALS

## P74-26 gp87 (Head Decoration Protein gp87 from Thermus phage P74-26) (natural protein)
  stoichiometry N: 3
